Measured values published in patent US9555076B2, “Neuregulin based methods and compositions for treating cardiovascular diseases” (Zensun (Shanghai) Science & Technology, Co., Ltd., priority 2002, dated 2017).
Marks after values point to notes of the source that are not given here.

System: acute myocardial injury caused by viral (Coxsackie B3) infection in mice
Experiment: Survival of mice infected with Coxsackie B3 virus
Format: in vivo, BALB/C mice
Settings: mice n = 20
Description: 0.2 ml of 100×TCID50 CVB3 provided by Zhong Shan Hospital affiliated to Fudan University was injected intra-abdominally and established myocarditis model. Within the following week, the mouse manifested pilo-erection, depilation, emaciation, dullness and death, about half of the tested animals died at the 8th day.
Intravenous injection of the testing drug into the tail vein was carried out the same day of intra-abdominal viral infection in mice, the injection was performed for consecutive 5 days, animal survival rate was monitored, after completion of the experiment, echocardiograph, myocardial pathologic examination, serum troponin determination were carried out.
The death status of model animals in various testing drug group was monitored.
• Normal mice control group, model group and testing drug group were set up; • Normal mice control group (n=10); • Model group (n=20): Prepared buffer solution was injected; • Testing drug group (n=20): […] courses with 20 animals assigned for each group; • Placebo control group (n=20): Intra-abdominal injection of non-CVB3 freeze-thaw cellular supernatant, 0.2 ml/animal. 10.2 Dosage Set Up, Preparation of Testing Drug, Route of Drug Administration, Times of Drug Administration, Concentration and Volume of the Testing Drug • rhNRG-1β was diluted with preparation buffer solution (10 mM PB, 0.2% human serum albumin, 5% mannitol to needed concentration; • Three drug administration groups were set up, intravenous injection for consecutive 3-day, 5-day and 7-day, drug volume for each dose was 0.2 ml/animal; • Drug administration of the model group was intravenous injection into the tail vein of mice, once every day (qd), for consecutive 7 days, drug volume for each dose was 0.2 ml/animal. 7.3 Method of the Experiment 7.3.1 Set Up of Acute Viral Myocariditis Animal Model in Mice

B1: rhNRG-1 β: Recombinant human neuregulin fragment of 61 amino acid (SEQ ID NO:4), 3 disulfide bonds, expressed in E. coli (protein, listed as Homo sapiens)
chain: SHLVKCAEKEKTFCVNGGECFMVKDLSNPSRYLCKCPNEFTGDRCQNYVMASFYKAEELYQ
modifications: disulfide (positions not given here)
- Numbers of survival animals (5 μg/kg (so in the source) iv qd × 5, 1st day, (I)): 20
- Numbers of survival animals (5 μg/kg (so in the source) iv qd × 5, 2nd day, (I)): 20
- Numbers of survival animals (5 μg/kg (so in the source) iv qd × 5, 3rd day, (I)): 20
- Numbers of survival animals (5 μg/kg (so in the source) iv qd × 5, 4th day, (I)): 19
- Numbers of survival animals (5 μg/kg (so in the source) iv qd × 5, 5th day, (I)): 18
- Numbers of survival animals (5 μg/kg (so in the source) iv qd × 5, 6th day, (I)): 15
- Numbers of survival animals (5 μg/kg (so in the source) iv qd × 5, 7th day, (I)): 13
- Numbers of survival animals (5 μg/kg (so in the source) iv qd × 5, killed, (I)): 10
- Numbers of survival animals (7.5 μg/kg iv qd × 5, 1st day, (II)): 20
- Numbers of survival animals (7.5 μg/kg iv qd × 5, 2nd day, (II)): 20
- Numbers of survival animals (7.5 μg/kg iv qd × 5, 3rd day, (II)): 20
- Numbers of survival animals (7.5 μg/kg iv qd × 5, 4th day, (II)): 18
- Numbers of survival animals (7.5 μg/kg iv qd × 5, 5th day, (II)): 17
- Numbers of survival animals (7.5 μg/kg iv qd × 5, 6th day, (II)): 14
- Numbers of survival animals (7.5 μg/kg iv qd × 5, 7th day, (II)): 11
- Numbers of survival animals (7.5 μg/kg iv qd × 5, killed, (II)): 10
- Numbers of survival animals (15 μg/kg iv qd × 5, 1st day, (I)): 20
- Numbers of survival animals (15 μg/kg iv qd × 5, 1st day, (II)): 20
- Numbers of survival animals (15 μg/kg iv qd × 5, 2nd day, (I)): 20
- Numbers of survival animals (15 μg/kg iv qd × 5, 2nd day, (II)): 20
- Numbers of survival animals (15 μg/kg iv qd × 5, 3rd day, (I)): 20
- Numbers of survival animals (15 μg/kg iv qd × 5, 3rd day, (II)): 20
- Numbers of survival animals (15 μg/kg iv qd × 5, 4th day, (I)): 20
- Numbers of survival animals (15 μg/kg iv qd × 5, 4th day, (II)): 19
- Numbers of survival animals (15 μg/kg iv qd × 5, 5th day, (I)): 19
- Numbers of survival animals (15 μg/kg iv qd × 5, 5th day, (II)): 18
- Numbers of survival animals (15 μg/kg iv qd × 5, 6th day, (I)): 17
- Numbers of survival animals (15 μg/kg iv qd × 5, 6th day, (II)): 16
- Numbers of survival animals (15 μg/kg iv qd × 5, 7th day, (I)): 14
- Numbers of survival animals (15 μg/kg iv qd × 5, 7th day, (II)): 13
- Numbers of survival animals (15 μg/kg iv qd × 5, killed, (I)): 13
- Numbers of survival animals (15 μg/kg iv qd × 5, killed, (II)): 13
- Number of survival animal (30 μg/kg iv qd × 3, 1st day, (I)): 20
- Number of survival animals (30 μg/kg iv qd × 3, 1st day, (II)): 20
- Number of survival animal (30 μg/kg iv qd × 3, 2nd day, (I)): 20
- Number of survival animals (30 μg/kg iv qd × 3, 2nd day, (II)): 20
- Number of survival animal (30 μg/kg iv qd × 3, 3rd day, (I)): 20
- Number of survival animals (30 μg/kg iv qd × 3, 3rd day, (II)): 20
- Number of survival animal (30 μg/kg iv qd × 3, 4th day, (I)): 19
- Number of survival animals (30 μg/kg iv qd × 3, 4th day, (II)): 20
- Number of survival animal (30 μg/kg iv qd × 3, 5th day, (I)): 18
- Number of survival animals (30 μg/kg iv qd × 3, 5th day, (II)): 19
- Number of survival animal (30 μg/kg iv qd × 3, 6th day, (I)): 16
- Number of survival animals (30 μg/kg iv qd × 3, 6th day, (II)): 16
- Number of survival animal (30 μg/kg iv qd × 3, 7th day, (I)): 14
- Number of survival animals (30 μg/kg iv qd × 3, 7th day, (II)): 15
- Number of survival animal (30 μg/kg iv qd × 3, killed, (I)): 13
- Number of survival animals (30 μg/kg iv qd × 3, killed, (II)): 15
- Numbers of survival animals (30 μg/kg iv qd × 5, 1st day, (I)): 20
- Numbers of survival animals (30 μg/kg iv qd × 5, 1st day, (II)): 20
- Number of survival animal (30 μg/kg iv qd × 5, 1st day, Example 5 (I)): 20
- Number of survival animals (30 μg/kg iv qd × 5, 1st day, Example 5 (II)): 20
- Numbers of survival animals (30 μg/kg iv qd × 5, 2nd day, (I)): 20
- Numbers of survival animals (30 μg/kg iv qd × 5, 2nd day, (II)): 20
- Number of survival animal (30 μg/kg iv qd × 5, 2nd day, Example 5 (I)): 20
- Number of survival animals (30 μg/kg iv qd × 5, 2nd day, Example 5 (II)): 20
- Numbers of survival animals (30 μg/kg iv qd × 5, 3rd day, (I)): 20
- Numbers of survival animals (30 μg/kg iv qd × 5, 3rd day, (II)): 20
- Number of survival animal (30 μg/kg iv qd × 5, 3rd day, Example 5 (I)): 20
- Number of survival animals (30 μg/kg iv qd × 5, 3rd day, Example 5 (II)): 20
- Numbers of survival animals (30 μg/kg iv qd × 5, 4th day, (I)): 20
- Numbers of survival animals (30 μg/kg iv qd × 5, 4th day, (II)): 20
- Number of survival animal (30 μg/kg iv qd × 5, 4th day, Example 5 (I)): 20
- Number of survival animals (30 μg/kg iv qd × 5, 4th day, Example 5 (II)): 20
- Numbers of survival animals (30 μg/kg iv qd × 5, 5th day, (I)): 20
- Numbers of survival animals (30 μg/kg iv qd × 5, 5th day, (II)): 19
- Number of survival animal (30 μg/kg iv qd × 5, 5th day, Example 5 (I)): 19
- Number of survival animals (30 μg/kg iv qd × 5, 5th day, Example 5 (II)): 19
- Numbers of survival animals (30 μg/kg iv qd × 5, 6th day, (I)): 18
- Numbers of survival animals (30 μg/kg iv qd × 5, 6th day, (II)): 18
- Number of survival animal (30 μg/kg iv qd × 5, 6th day, Example 5 (I)): 19
- Number of survival animals (30 μg/kg iv qd × 5, 6th day, Example 5 (II)): 19
- Numbers of survival animals (30 μg/kg iv qd × 5, 7th day, (I)): 17
- Numbers of survival animals (30 μg/kg iv qd × 5, 7th day, (II)): 17
- Number of survival animal (30 μg/kg iv qd × 5, 7th day, Example 5 (I)): 18
- Number of survival animals (30 μg/kg iv qd × 5, 7th day, Example 5 (II)): 18
- Numbers of survival animals (30 μg/kg iv qd × 5, killed, (I)): 16*
- Numbers of survival animals (30 μg/kg iv qd × 5, killed, (II)): 17*
- Number of survival animal (30 μg/kg iv qd × 5, killed, Example 5 (I)): 17*
- Number of survival animals (30 μg/kg iv qd × 5, killed, Example 5 (II)): 18*
- Number of survival animal (30 μg/kg iv qd × 7, 1st day, (I)): 20
- Number of survival animals (30 μg/kg iv qd × 7, 1st day, (II)): 20
- Number of survival animal (30 μg/kg iv qd × 7, 2nd day, (I)): 20
- Number of survival animals (30 μg/kg iv qd × 7, 2nd day, (II)): 20
- Number of survival animal (30 μg/kg iv qd × 7, 3rd day, (I)): 20
- Number of survival animals (30 μg/kg iv qd × 7, 3rd day, (II)): 20
- Number of survival animal (30 μg/kg iv qd × 7, 4th day, (I)): 20
- Number of survival animals (30 μg/kg iv qd × 7, 4th day, (II)): 20
- Number of survival animal (30 μg/kg iv qd × 7, 5th day, (I)): 20
- Number of survival animals (30 μg/kg iv qd × 7, 5th day, (II)): 20
- Number of survival animal (30 μg/kg iv qd × 7, 6th day, (I)): 19
- Number of survival animals (30 μg/kg iv qd × 7, 6th day, (II)): 19
- Number of survival animal (30 μg/kg iv qd × 7, 7th day, (I)): 19
